T1: mouse CD33 extracellular domain with 6xHis-tag (mouse, UniProt Q63994 18-240)
T1 construct: range 18-240; also called moCD33-His; moCD33(ECD)-His
T1 sequence: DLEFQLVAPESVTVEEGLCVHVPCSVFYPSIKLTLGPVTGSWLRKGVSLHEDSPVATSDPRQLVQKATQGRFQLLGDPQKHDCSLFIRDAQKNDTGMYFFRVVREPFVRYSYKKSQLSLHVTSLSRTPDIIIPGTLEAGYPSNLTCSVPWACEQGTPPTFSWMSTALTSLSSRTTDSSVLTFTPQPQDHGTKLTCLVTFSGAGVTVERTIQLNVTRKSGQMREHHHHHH


Columns and labels:
[1] = target: T2, human CD33 extracellular domain with 6xHis-tag (human, UniProt P20138 18-259); assay: ELISA, hybridoma supernatant
T2 construct: Bought (R&D Systems, Acro Biosystems); also called huCD33-His; huCD33(ECD)-His
T2 sequence (P20138 other isoform, or with tags, fused parts or gaps): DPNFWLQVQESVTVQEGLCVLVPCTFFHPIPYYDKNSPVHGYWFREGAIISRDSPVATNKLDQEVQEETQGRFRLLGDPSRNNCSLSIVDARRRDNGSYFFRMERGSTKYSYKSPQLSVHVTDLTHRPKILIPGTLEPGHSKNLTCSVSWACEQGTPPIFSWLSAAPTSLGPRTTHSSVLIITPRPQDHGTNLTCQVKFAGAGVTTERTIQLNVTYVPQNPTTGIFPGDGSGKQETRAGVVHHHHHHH

[2] = target: T3, human CD33 IgC2 type domain with 6xHis-tag (human, UniProt P20138 140-259); assay: ELISA, hybridoma supernatant, RLU
T3 construct: Produced at LakePharma; also called huCD33IgC2-His; CD33 IgC2-6xHis
T3 sequence (P20138 other isoform, or with tags, fused parts or gaps): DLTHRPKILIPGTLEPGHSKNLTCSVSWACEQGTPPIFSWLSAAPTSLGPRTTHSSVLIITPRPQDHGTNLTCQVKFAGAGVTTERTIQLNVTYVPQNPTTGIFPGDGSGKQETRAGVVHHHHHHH

[3] = target: T4, human CD33, full length, on cells (human, UniProt P20138 18-364); assay: flow cytometry, purified mAb, Set2 cells
T4 construct: NIH-3T3 cells stably overexpressing full-length human CD33, or AML lines U937 and Set2 with endogenous CD33; the cell line is named under assay; also called 3T3-huCD33; 3T3-CD33
T4 sequence (P20138 18-364): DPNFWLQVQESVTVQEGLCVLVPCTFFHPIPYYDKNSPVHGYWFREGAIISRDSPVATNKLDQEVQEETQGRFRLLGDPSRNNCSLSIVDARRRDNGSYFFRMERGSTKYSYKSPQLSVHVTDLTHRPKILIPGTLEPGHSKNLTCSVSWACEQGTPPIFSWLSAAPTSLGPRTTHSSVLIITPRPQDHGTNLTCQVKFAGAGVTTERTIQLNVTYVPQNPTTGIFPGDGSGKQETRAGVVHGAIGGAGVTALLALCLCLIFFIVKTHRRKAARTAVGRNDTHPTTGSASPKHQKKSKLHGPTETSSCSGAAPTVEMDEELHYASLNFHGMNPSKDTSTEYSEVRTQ

[4] = target: T4, human CD33, full length, on cells; assay: flow cytometry, purified mAb, U937 cells
[5] = target: T4, human CD33, full length, on cells; assay: flow cytometry, hybridoma supernatant, U937 cells
[6] = target: T4, human CD33, full length, on cells; assay: flow cytometry, hybridoma supernatant, 3T3-huCD33 cells
[7] = target: T5, human CD33 IgC2 domain only, on NIH-3T3 cells (human, UniProt P20138 140-364); assay: flow cytometry, hybridoma supernatant, 3T3-huCD33IgC2 cells, MFI
T5 construct: the whole entry is named here; also called 3T3-huCD33IgC2; 3T3 CD33-IgC2
T5 sequence (P20138 140-364 limits assumed): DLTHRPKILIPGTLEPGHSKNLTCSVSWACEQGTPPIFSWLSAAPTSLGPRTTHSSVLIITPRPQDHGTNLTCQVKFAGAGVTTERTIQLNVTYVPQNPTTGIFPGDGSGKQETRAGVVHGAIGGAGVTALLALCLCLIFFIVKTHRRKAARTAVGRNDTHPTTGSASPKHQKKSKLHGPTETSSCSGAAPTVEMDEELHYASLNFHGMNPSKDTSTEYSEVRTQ

[8] = target: T1, mouse CD33 extracellular domain with …; assay: ELISA on recombinant moCD33-His, purified hybridoma subclone antibody, readout RLU; antibody concentration not given
[9] = target: T3, human CD33 IgC2 type domain with …; assay: ELISA, hybridoma supernatant
[10] = target: T5, human CD33 IgC2 domain only, on NIH-3T3 …; assay: flow cytometry, hybridoma supernatant, 3T3-huCD33IgC2 cells
[11] = target: T4, human CD33, full length, on cells; assay: flow cytometry, U937 cells
Procedure: (§1) Binding to CD33 on Cells. To assess the binding of TDI-Y-006, TDI-Y-007 and 1J19 to cell surface-bound CD33, 3T3 cells overexpressing CD33, as well as the U937 AML cell line, which expresses endogenous CD33, were used. U937 CD33KO or NALM6 were included as negative controls. Briefly, NALM6, U937 CD33+ and KO cells were blocked with human IgG Fc for 20 minutes on ice. The recombinant antibodies were then serially diluted starting at 100 μg/mL concentration and added for 30 minutes on ice. AlexaFluor 647-conjugated goat anti-human F(ab′)2 was added to cells for 30 minutes on ice, washed and analyzed by flow cytometry, normalized to secondary only staining (MFI ratio). EC50 values were determined by non-linear regression.

[12] = target: T4, human CD33, full length, on cells; assay: flow cytometry, 3T3-CD33 cells
Procedure: as §1

[13] = target: T2, human CD33 extracellular domain with …; assay: BLI, huCD33-His on anti-penta-His sensor, no competitor
Procedure: Epitope Binning. Epitope binning was carried out by a BLI competition experiment using an Octet Red96e. Human CD33-His was captured by an anti-penta-His biosensor. A 4×4 matrix with TDI-Y-006, TDI-Y-007, 1J19 and H195 was tested. A reference biosensor was used to determine the overall capture level for each antibody. After pre-binding the antibodies at saturation levels, the biosensors were dipped into antibody solutions to assess competition. […] However, when TDI-Y-006 was pre-bound, binding of TDI-Y-007 was blocked. […] Similarly, 1J19 and H195 have epitopes that partially overlap. No competition was observed between antibodies binding to the membrane-proximal IgC2 domain (TDI-Y-006 and TDI-Y-007) and antibodies binding to the membrane-distal IgV domain (1J19 and H195).

[14] = target: T2, human CD33 extracellular domain with …; assay: BLI (Octet Red96e), antibody on anti-huFc sensor, huCD33-His as analyte, 1:1 fit
Procedure: The binding affinity to human CD33 protein was measured by biolayer interferometry (BLI) using an Octet Red96e. All experiments were carried out using kinetic buffer (PBS pH 7.4, 0.01% BSA, 0.002% Tween-20). The antibodies were captured by an anti-huFc biosensor and a 7-point, 2-fold dilution series of huCD33-His was used as analyte. The data was processed by double reference subtraction, and response curves were globally fit to a 1:1 Langmuir binding model. […] The binding affinities are similar to the H195 reference antibody.

[15] = target: T4, human CD33, full length, on cells; assay: flow cytometry on 3T3 cells overexpressing human CD33, antibody titration, AlexaFluor 647 goat anti-human F(ab')2 detection, MFI ratio to secondary only
Procedure: as §1

Binder | RLU [1] [RLU] | binding result [2] | EC50 [3] [nM] | EC50 [4] [nM] | MFI [5] [MFI] | MFI [6] [MFI] | binding result [8] | RLU [9] [RLU] | MFI [10] [MFI] | EC50 [11] [nM] | EC50 [12] [nM] | BLI total binding capacity (Reference Biosensor) [13] | Kd [14] [nM] | kon [14] [M⁻¹ s⁻¹] | EC50 (read off the curve) [15] [nM] | binding result [7]
1-P13 (antibody, V domains shown, AlivaMab mouse hybridoma antibody; also called 1-P13-A) VH: not shown VL: DVVMTQSPLSLPVSLGQPASISCRSSRGLVYSDVNTNLNWFQQRPGQSPRRLIYKVSNRDSGVPDRFSGSGSGTDFTLKISRVEAEDVGVYYCMQGTHWPWTFGQGTKVEIK | 117000 | no binding | 5 | 6.33 | 559000 | 2.15e+06 | no binding | – | – | – | – | – | – | – | – | –
1-A20 (antibody, V domains shown, AlivaMab mouse hybridoma antibody; also called 1-A20-A) VH: QVQLQESGPGLVKPSETLSLTCTVSGDSISSYYWSWIRQPAGKGLEWIGRIYTSGNTNYNPSLKSRVTMSVDKSKNQFSLKLRSVTAADTAVYYCARDGDNRDSDAFDIWGQGTMVTVSS VL: SPGTLSLSPGERATLSCRASQNISSSYLAWCQQKPGQAPRLFIYGTSRRATGIPDRFSGSGSGTDFTLTISRLEPEDFAVYYCQQYGSSPLTFGGGTKVEIK | 117000 | no binding | 0.4 | 0.6 | 558000 | 1.98e+06 | no binding | – | – | – | – | – | – | – | – | no binding (tested: A signal >100,000 was used as cut off)
1-H19 (antibody, V domains shown, AlivaMab mouse hybridoma antibody; also called 1-H19-A) VH: QVQLQESGPGLVKPSETLSLTCTVSGGSISTYYWSWIRQPAGKGLEWIGRIYTSGNTNYNPSLKSRVTMSVDTSKNQLSLKLRSVTAADTAVYYCARDGDNRNSDAFDIWGQGTMVTVSS VL: QSVLTQPPSVSGAPGQRVTISCTGSSSNIGAGYDVHWYQQLPGTAPKLLIYGNSNRPSGVPDRFSGSKSGTSASLAITGLQAEDEADYYCQSYDRSLSGWVFGGGTKLTVL | 132000 | – | 0.4 | 0.866 | 479000 | 1.75e+06 | no binding | 58900 | – | – | – | – | – | – | – | –
1-P23 (antibody, V domains shown, AlivaMab mouse hybridoma antibody; also called 1-P23-A) VH: QVQLVESGGGVVQPGRSLRLSCAASGFTFNSYGMHWVRQAPGKGLEWVAIISYDGSNKYYADSVKGRFTISRDNSKNTLYLQMNSLRAEDTAVYYCARDNYDSSGYNWYFDLWGRGTLVTVSS VL: SSELTQDPAVSVALGQTVRITCQGDSLRSYYASWYQQKPGQAPVLVIYGKNNRPSGIPDRFSGSSSGNTASLTITGAQAEDEADYYCNSRDSSGNLWVFGGGTKLTVL | 41800 | no binding | 1.4 | 1.07 | 456000 | 4.08e+06 | no binding | – | – | – | – | – | – | – | – | no binding (tested: A signal >100,000 was used as cut off)
1J19 (recombinant, human IgG1 constant region) (antibody, V domains shown) VH: QVQLQQSGPGLVKPSQTLSLTCAISGDSVSSNSAAWNWIRQSPSRGLEWLGRTYFRSKWYNVYAVSVKSRITINPDTSKNQFSLQLNSVTPEDTAVYYCASEGGSYYDHWGQGTLVTVSS VL: DIQMTQSPSSVSASVGDRVTITCRASQGISNWLTWYQQKPGKAPKLLIYAASSLQSGVPSRFSGSGSGTDFTLTISSLQPEDFATYYCQQADSFPFTFGPGTKVDIK | – | – | – | – | – | – | – | – | – | 2.16 | 6.54 | 0.432 | 1.1 | 266000 | ~4 | –
1-J19 (hybridoma antibody) (antibody, V domains shown, AlivaMab mouse hybridoma antibody; also called 1-J19-A) VH: QVQLQQSGPGLVKPSQTLSLTCAISGDSVSSNSAAWNWIRQSPSRGLEWLGRTYFRSKWYNVYAVSVKSRITINPDTSKNQFSLQLNSVTPEDTAVYYCASEGGSYYDHWGQGTLVTVSS VL: DIQMTQSPSSVSASVGDRVTITCRASQGISNWLTWYQQKPGKAPKLLIYAASSLQSGVPSRFSGSGSGTDFTLTISSLQPEDFATYYCQQADSFPFTFGPGTKVDIK | 95600 | – | 7.93 | 10.2 | 339000 | 3.86e+06 | – | 15200 | – | – | – | – | – | – | – | no binding (tested: A signal >100,000 was used as cut off)
2-F18 (antibody, V domains shown, AlivaMab mouse hybridoma antibody; also called 2-F18-A) VH: QIQLVESGGGVVQPGRSLRLSCAASGFTFSAYPMHWVRQAPGKGLEWVAIISYDGSNNYYADSVKGRFTISRDNSKNTMYLQINSLRAEDTGVYYCARGKVGTLDFWGQGTLVTVSS VL: not shown | 251000 | – | 24.2 | 11.9 | 351000 | 3.56e+06 | no binding | 20400 | – | – | – | – | – | – | – | –

Second part, led by results:

RLU [1] [RLU] | binding result [2] | EC50 [3] [nM] | EC50 [4] [nM] | MFI [5] [MFI] | MFI [6] [MFI] | binding result [8] | RLU [9] [RLU] | MFI [10] [MFI] | EC50 [11] [nM] | EC50 [12] [nM] | BLI total binding capacity (Reference Biosensor) [13] | Kd [14] [nM] | kon [14] [M⁻¹ s⁻¹] | EC50 (read off the curve) [15] [nM] | Binder | binding result [7]
724000 | no binding | 0.466 | 0.4 | 409000 | 4.21e+06 | no binding | – | – | – | – | – | – | – | – | 2-N3 (antibody, V domains shown, AlivaMab mouse hybridoma antibody; also called 2-N3-A) VH: EVQLVQSGADVKKPGESLKISCKGSGFSFTSHWIAWVRQMPGKGLEWMGIIYPGDSDTRYSPSLQGRVTISADKSISTAYLQWSSLKASDTAMYFCARHETGNGYSYGMDVWGQGTTVTVSS VL: DIVMTQSPLSLPVTPGEPASISCRSSQSLLHSNGYNYLDWYLQKPGQSPQLLFSLGSNRASGVPDRFSGSGSGTDFSLKISRVEAEDVGLYYCMQALQPPLTFGGGTKVEIK | no binding (tested: A signal >100,000 was used as cut off)
484000 | – | 2 | 2.5 | 188000 | 1.32e+06 | no binding | – | 391000 | – | – | – | – | – | – | 4-P3 (antibody, V domains shown, AlivaMab mouse hybridoma antibody; also called 4-P3-A) VH: EVQLLESGGGLVQPGGSLRLSCAASGFTFSTYAMSWVRQAPGKGLEWVSAISGRGGSTYYTDSVKGRFTISRDNSKNTVSLQMNSLRAEDTAVYYCAGRGDYYYYYGMDVWGQGTTVTVSA VL: DIVMTQSPLSSPVTLGQPASISCRSSQSLVYSDGNTYLSWLQQRPGQPPRLLIYKISNRFSGVPDRFSGSGAGTDFTLKISRVEAEDVGVYYCMQSTQFPHTFGQGTKLEIK | –
– | – | – | – | – | – | – | – | – | 0.4 | 4.8 | 0.743 | 1.22 | 358000 | – | H195 (lintuzumab) (antibody, V domains shown) VH: QVQLVQSGAEVKKPGSSVKVSCKASGYTFTDYNMHWVRQAPGQGLEWIGYIYPYNGGTGYNQKFKSKATITADESTNTAYMELSSLRSEDTAVYYCARGRPAMDYWGQGTLVTVSS VL: DIQMTQSPSSLSASVGDRVTITCRASESVDNYGISFMNWFQQKPGKAPKLLIYAASNQGSGVPSRFSGSGSGTDFTLTISSLQPDDFATYYCQQSKEVPWTFGQGTKVEIK | –
